Source: US7097972

Biological target: purified poly(ADP-ribose) polymerase (PARP)

B1: purified recombinant human ICE (protein)
chain 1: NPAMPTSSGSEGNVKLCSLEEAQRIWKQKSAEIYPIMDKSSRTRLALIICNEEFDSIPRRTGAEVDITGMTMLLQNLGYSVDVKKNLTASDMTTELEAFAHRPEHKTSDSTFLVFMSHGIREGICGKKHSEQVPDILQLNAIFNMLNTKNCPSLKDKPKVIIIQACRGDSPGVVWFKD
chain 2: AIKKAHIEKDFIAFCSSTPDNVSWRHPTMGSVFIGRLIEHMQEYACSCDVEEIFRKVRFSFEQPDGRAQMPTTERVTLTRCFYLFPGH
**Q.** B1 was tested. Which “proteolytic cleavage of purified PARP, anti-PARP immunoblot” value did it give?
**A.** The value was “Purified ICE did not cleave PARP”.
